Assay results: the DeepSol protein solubility set

Assay: soluble on expression in E. coli; label from the status in PepcDB or PDB records

Sequence	soluble on expression in E. coli
MGSDKIHHHHHHMTQTSSPLRNRYEFLLLFDVENGNPNGDPDSGNAPRVDPEDGHGLVSDVALKRRVRNYVQAAGEQIFIQHGTNLNRPIFQAKQASGGGSKGKQDVDAARRWMCEHFYDVRTFGAVMSTGANAGQVRGPVQLTFARSLDPVFAIEASITRGAVAEDIKNAKTLDDFLNWEAQQDEDKLRTMGRKSLIPYGLFATKGFVSAHLAQGTGFSEADLKLLLEALLNMYEHDRSASKGLMSSRRLFVFRHVGTDSDPQQRARQAVLGCAPAHKLLDLGQVIEVRRKDEHKPARALSDYEVTVHLDRLPAGVELLDLDSWDEARYHDGWQSR	not soluble
MKDKKTISILGCGWLGLPLAEAFIQSGFRVKGSTTREERLSVIEAAGAEGYVLKADGGAWTGERLNDFLRCDILLIAIPPGTKRNANSTHAVEIGQLMDHIKKYSIAIKQLIYISSTSVYKNINSVVIESDTAIPSNIGNQILFQAEKHVHESVIERKLILRLGGLTGYDRMLGRFFAGKQELAGGNEPVNLVHRDDVVACILFLLKNGIGEQVFNICSPQHPSRKEFYTRLCDRFNLPEPH	not soluble
GSKKRQRFVDKNGRCNVQHGNLGSERAETLMFSEHAVISMRDGKLTLMFRVGNLRNSHMVEAQIRCKLLKSRQTPEGEFLPLDQLELDVGFSTGADQLFLVSPLTICHVIDAKSPFYDLSQRSMQTEQFEVVVILEGIVETTGMTCQARTSYTEDEVLWGHRFFPVISLEEGFFKVDYSQFHATFEVPTPPYSVKEQEEMLLMSSPL	soluble
MGSDKIHHHHHHMAQRSILVGQIWHEGHSFNPILTREKDFLFLRGEAVLEEARASSTALSGIVKTAEALGYRCVPSISARARPGGAIEQKVFDNIVDEFVQAARMQDFDAICLDLHGATLAEHTLDTEGYLLSRLREVVGNDIMISLALDLHAYLTPQMVEQATIITSFRTTPHADIEETGVRAMTLLDSLSNETRPPRAIYSLIPFLTRGNDETWSGPLAEIGAAADRWRARSDVVDLSIFNVHPFLDVPGYGQVVLAYDNGSGAAIDACRDLSDMLWKARDEFQEQLMSVDKALEIARTSRQLLALGDQGDRVMGAGPGDSPEIARVALEHFPGLKVAVPVYDPQAVRTAREAGENATVRMAVGGAFTHSVAPLERDWTVRKLCRARFTNIGPYMAGTEADFGDAAVLTCDAVTVIVTTMAPNVHDPAFYEAVGVPLASQQAVVARAANHYKLSFADIARTITVDTPGLTAFKPHQFPFTQARPFYPLDIVQWSFAPLECNKVG	not soluble
MGLFFAQNMMYNHTITVYDRNYELVKVIPDEVDLSKYGHSRFKGKYRGAPVEASFSHNGKYAWISNYQMYGPGFNNPGSDKCHPSQKTDKSFLYRINTETLKIDRVIPVGSVPKFVATSTDENLILVSNWCSWDLSVVDINQNQEIKRIKLGPYPRGIVVDPASETAYVAVMGSYNIAKVNLRDFSVQWLRNIGSSPRHLNIDPAGKYLYASLNGEGKIAKISLPQGNLVKKIATGNAPRSMVLSANGQTLYVVNYGEDTVSKVRTSDMKVLQKVKVEPDPIGITYDPQTREVWVACYSGNIMIFQDLEHHHHHH	soluble
LNSVGQGEFGGAPFKRFLRGTRIVSGGKLKRMTREKAKQVTVAGVPMPRDAEPRHLLVNGATGTGKSVLLRELAYTGLLRGDRMVIVDPNGDMLSKFGRDKDIILNPYDQRTKGWSFFNEIRNDYDWQRYALSVVPRGKTDEAEEWASYGRLLLRETAKKLALIGTPSMRELFHWTTIATFDDLRGFLEGTLAESLFAGSNEASKALTSARFVLSDKLPEHVTMPDGDFSIRSWLEDPNGGNLFITWREDMGPALRPLISAWVDVVCTSILSLPEEPKRRLWLFIDELASLEKLASLADALTKGRKAGLRVVAGLQSTSQLDDVYGVKEAQTLRASFRSLVVLGGSRTDPKTNEDMSLSLGEHEVERDRYSKNTGKHHSTGRALERVRERVVMPAEIANLPDLTAYVGFAGNRPIAKVPLEIKQFANRQPAFVEGTI	soluble
MSLALEVNMLTGGPTGTYIQIGRDIAKAASACGIEMTVHESAGSLENFLGVRQRPRTQFGIVQSDVLEYLKTFAADDPEVSRAIFGVRIAFPLYDEEVHLLARREIGSLKDLDGKRVSIGVENSGTFLTASLVLDLAEVAPGERRMMNQDDSLKALLAGDIDAFFYVAGAPAKIFASPEIDGERFHLVPVAEEVLRQVYKPTQIPAGSYPFQTGPVDAIAVKAVLMTYGYDPKRNAYHRESCKAVSDIAHVVSTHFPELQQSGHPKWKQVNLTDLPAGWDIGECVNAGLEPGYRLPCDPPEPAVAAPADASAESEANRAYRRQICAVVGEGHHHHHH	soluble
MSLMESWLIPAAPVTVVEEIKKSRFITMLAHTDGVEAAKAFVESVRAEHPDARHHCVAWVAGAPDDSQQLGFSDDGEPAGTAGKPMLAQLMGSGVGEITAVVVRYYGGILLGTGGLVKAYGGGVNQALRQLTTQRKTPLTEYTLQCEYHQLTGIEALLGQCDGKIINSDYQAFVLLRVALPAAKVAEFSAKLADFSRGSLQLLAIEEEGGSHHHHHH	soluble
MVMKREVVGYTTMSEHLIDTQLTRSPFFFASANQSMLGCGVAHAFQQAIPFAELANQAKQLLQQAKRDECDNPLLFGIVPFDPKTPTRFMIPRTLYVSSSPRLNRPAHLTRQVAKLISSPSGEQYKQGVSHLLNMFHHSGLSKVVLSRAIEIATEQEIALPTLLRSLLAINHHGYTFAASLDEQRKLIGASPELLVAKRGNYLISNPLAGSRPRSQDAQENAQRRASLLNTAKDLHEHGLVVEEVERIMSRYCRNLYTPMVPSVIETETMLHLSTLLEGQVSDPEVCALQVAADLHPTPAVCGFPRESAYQAIRELEEFDRGYFTGMVGWCDARGNGEWVVTIRCAEVGSHQMKLFAGAGIVDESLPQSELEETGAKMKTILAAAGIELNDVLTA	not soluble
MKVGNQMNEEQLSKRLEKVASYITKNERIADIGSDHAYLPCFAVKNQTASFAIAGEVVDGPFQSAQKQVRSSGLTEQIDVRKGNGLAVIEKKDAIDTIVIAGMGGTLIRTILEEGAAKLAGVTKLILQPNIAAWQLREWSEQNNWLITSEAILREDNKVYEIMVLAPSEKPVTWTKQEIFFGPCLLKEQSAIFKSKWRHEANTWQNIIQTISNNQPVSTENQAKIRELEHKIALVEDVLK	not soluble
MGSDKIHHHHHHMNLYEKLAEDIETSIRQGVYRHGERLPSVRQISQQHRISVTTAIRAYLLLESRGLVTSRPQSGYFVNRRDESERKALELRPSKPIPISSPVDVSRLVLSTLRSIGVDDAVPLGSPYPDPSLFPFERINRYAYDAGRGKAQWGVTDALPPGNAKLVRQIARRYLENGMAVDPNEIIITVGATEAINLCLQAVAKPGDVIAVESPTFYAMLHAIERMGMKAIEVSTHPEHGIDIEALAAIVESQPIAACMVMPNFQNPLGFLMPDERKRELVELLTKRNIPVIENGVYNELHFDSPHPSTLKSFDTKGLVLHCSSFSKSLTSAYRIGWALPGRYRDQVEKLKFLNTLTSPSIPQLAIAEFLERDGFEHHLRKVRKAYAQQANLMKAIVSRFFPEGTRMSNPAGGYVLWVELPPRVDSMRLYKLALDQGITIGPGYMFSVSETTYRNFIRLNYSSPWSGEIEQAVITVGKLVSMCAS	not soluble
MTDTLLPAAPQPLEKEGDDYFRKGCNPLAQTGRSKLQNQRAALNQQILKAVRMRTGAENLLKVATNQKVREQVRLELSFVNSDLQMLKEELEGLNISVGVYQGTEEAFTIPLIPLGLKETKEVDFSIVFKDFILEHYSEDSYLYEDDIADLMDLRQACRTPSRDEAGVELLMSYFIQLGFVESRFFPPTRHMGLLFTWYDSFTGVPVSQQTLLLEKASVLFNIGALYTQIGTRCNRQTQAGLESAVDAFQRAAGVLNYLKETFTHTPSYDMSPAMLSVLVKMMLAQAQESVFEKVCLPGIQNEFFVLVKVAQEAAKVAEAYRQLHAAMSQEPVKENIPYSWASVAYVKAYHYGALAHYFAATLLIDHQLKPGADEDHQEKCLSQLYDRMPEGMTPLATLKNAGQRVLLGKGHLHRAIGFHEESLREANLCKKLRDIQVLRDVLSAAHQRTQLKHTQHREDDDLLNLIDAPDVLPKTEREVKITFPDFSKVTVTDFFQKLGPLSVFSASKRWSPPRGIHFTVEEGDLGFTLRGNTPVQVHFLDPHCSASLAGAKEGDYIVSIQGVDCKWLTVSEVMKLLKSFGGEEVEMKVVSLLDSTSSMHNKCATYSVGMQKTYSMICLSMDDDDKADKTKKISKKLSFLSWGTSKNRQKSASTLCLPEVGLARSQNKKKLPTPFSLLNSDSSLY	soluble
GNIESIENLQGIRALQQQAPQLLSSGLPNEQQFSLLKQAGVDVVINLMPDSSKDAHPDEGKLVTQAGMDYVYIPVDWQNPKVEDVEAFFAAMDQHKGKDVLVHCLANYRASAFAYLYQLKQGQNPNMAQTMTPWNDELAIYPKWQALLTEVSAKYGH	soluble
MGSDKIHHHHHHMALLEVTDLSQSFADRKLYDDANFTLERADHMGIVGQNGAGKSTLIKILTGQILPLSGQIKWQRNVRTGYLDQYADIPAGMTLYAFLKTAFQRLYDLDAQMQQLYADYAEKMDDQLLERAGRIQETLEANNFYDVETEMERVITGLGLDEIGRDHVISEMSGGQRSKIILAKLLLENPDVIILDEPTNYLDTAHISWLEDYLNGFEGAVMVISHDYDFLQQVTNCICDVAFGKIIKYRGDFKAAMRQKEARKEAQLKAFEKQQVVIEKAEKFIRKNKAGSKSTMAKSREKMLSHLDRVDPPSENEHAKFAFPYLDTGSQNALSVTKLSVGYGKPLLEPVTFTMTNGEKLAFKGFNGVGKSTLIKSILGVIPALSGKSDFSPSAKINYFNQDLEWDNPQLTPLQTIQNEYPTMLPKTIRTKLAKCGINAANAMKPMHLLSGGEQTKVKLALLELVPSNFLIMDEPTNHLDDETKEGLKRALQAFQGNLILVSHESSFVNGWVDKELNVEKLSLKERQG	not soluble
MGSDKIHHHHHHEVYIFTSHREPALDGLHYLYSYDGYHWDSIAGSWLKPEIGNKTPYYNYFTKQTEEQKYAPNSMMRDPSMTQGPDGTFHLVWTISWNGEQGFGYASSKDLIHWSEQREIKVMKDSLTNNVWAPEVFYDDEKEQFIVAWSSAIPVERYTAADSLGANKSHRAYYTTTKDFQTFTPAKAFYDPGFNSIDGFIVKRDKNDYVLIIKDNRKPGYSDLFCVSGPSAEGPYADPSVKFAPTYSEGPCAVKVGDEWLIYFDVYREGRFGAVSTKDFKNFTPIDDQISIPQGHKHGTIIEVPESVLLNLKAEEAKRFPQKD	not soluble
MSDISIEMIKRIVEEVVKKFLSKKILVVFTGGKVNFDISLDELKKIKENSMVEYTLVFSRAASQIFNKKMISDQLESVEVIEEGEAINARECVQKHNMVIFATLTRNTASKISHLILDTLPTQIAINCVLSDVPIVAVRDAADLNVETWRELGFSNFPPALKNSYDKIFKDIESYGIELCNSFELAKKVLGYLNSNSFSIAEKINKEEKSKRENSYYNGAKNIRLEKKIITREDIIGLKGKIDTIEIAKDSIITPLAMDFIRDNQLKVIKT	not soluble
MSLFHPEISGEWGAVKGDNIELLLNVDLSNPSPAPILLETIKVKLAGVKIGETKRANIAIFSRKVTIDSIINLDNLTTALINHIKEKEESTVSVYAKLELFDVIPVEYSRDVNFQTDLLSYLKNLRVEPKIYSIGGIPLKTPGIEGMDAKWGRVSNDSIEIIGWLKLYNPNSFPIPVTGLSADLYMNSVNIGKGVILKGTVLQPNSRGEVKVKLVLDVDNFKEAFKTHITNGERSTIRADINLVVKVGGVEYEIPIKDIETTFETDILGSIKFGEGHHHHHH	soluble
GVNSVAARVTELTGREVAAVAERGHSHRWHLYRVELADGTPLFVKALPDDAPALDGLFRAEALGLDWLGRSFGSPVPQVAGWDDRTLAMEWVDERPPTPEAAERFGHQLAAMHLAGAESFGATWDGYIGPLPMDNTPRSTWPEFYAEQRILPYLRRAADRGALTPGDVRLVEKVLDALDHLAGDPEPPARIHGDLWNGNVLWQDDGAVVIDPAAHGGHREADLAMLALFGLPYLDRVRDAYNEVAPLAEGWRARIPLHQLHPLLVHVCLFGAAYRTTLVDTARAALRA	soluble
